Data from US20050158799A1 (published 2005).

Target: T1, TLR3-YFP (Toll-Like Receptor 3 fused to yellow fluorescent polypeptide), stably expressed in HELA cells (UniProt O15455 24-904)
T1 construct: Immunoprecipitated from whole cell lysates with anti-GFP antibody; not shown: yellow fluorescent polypeptide (YFP)
T1 sequence (looked up): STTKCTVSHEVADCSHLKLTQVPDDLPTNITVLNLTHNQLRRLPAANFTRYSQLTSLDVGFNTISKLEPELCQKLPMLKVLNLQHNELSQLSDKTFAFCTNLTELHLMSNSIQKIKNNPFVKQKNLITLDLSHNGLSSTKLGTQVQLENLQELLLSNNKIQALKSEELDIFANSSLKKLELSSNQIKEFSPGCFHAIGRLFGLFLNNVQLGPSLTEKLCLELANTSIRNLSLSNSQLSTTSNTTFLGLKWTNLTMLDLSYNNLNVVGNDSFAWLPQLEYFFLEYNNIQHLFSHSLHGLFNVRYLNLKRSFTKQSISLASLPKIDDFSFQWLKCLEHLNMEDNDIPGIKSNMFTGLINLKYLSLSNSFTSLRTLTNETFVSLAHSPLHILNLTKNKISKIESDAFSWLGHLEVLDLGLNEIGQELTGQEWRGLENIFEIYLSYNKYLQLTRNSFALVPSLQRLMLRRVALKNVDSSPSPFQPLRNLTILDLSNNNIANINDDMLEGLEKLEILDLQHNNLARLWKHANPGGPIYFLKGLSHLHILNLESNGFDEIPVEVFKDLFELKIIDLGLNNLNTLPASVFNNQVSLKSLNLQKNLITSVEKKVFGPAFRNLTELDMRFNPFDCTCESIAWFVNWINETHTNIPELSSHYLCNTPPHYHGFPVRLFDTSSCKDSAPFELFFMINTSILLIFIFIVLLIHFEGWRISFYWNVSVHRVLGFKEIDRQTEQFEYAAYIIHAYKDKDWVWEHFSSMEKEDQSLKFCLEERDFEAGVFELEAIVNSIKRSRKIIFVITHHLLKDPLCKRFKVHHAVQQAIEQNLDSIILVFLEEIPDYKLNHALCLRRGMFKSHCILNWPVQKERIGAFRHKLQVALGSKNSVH
Assay: co-immunoprecipitation from TLR3-YFP HELA cell lysates with anti-GFP, blot for Flag
Method: 293T cells or TLR-expressing cells (10 cm plates) were transfected using GeneJuice (Novagen) with 4 μg of the indicated plasmids. One to two days after transfection, the cells were lysed in 1 ml of lysis buffer (20 mM Tris-HCl, 2 mM EDTA, 137 mM NaCl, 0.5% Triton X-100, 10% glycerol with protease inhibitors). Polyclonal anti-GFP (Molecular Probes), anti-IRF-3 or anti-CBP antibodies were incubated overnight with the cell lysates in […]. The immune complexes were precipitated and subjected to 4-15% SDS-PAGE and immunoblotted for FLAG- or CFP/YFP-tagged adapters using the anti-Flag mAb M2 (Sigma), or anti-GFP mAb (Clontech), which also recognizes the spectral variants of GFP.
Co-immunoprecipitation studies were performed to determine if TRAM interacts with TLR4. Stable TLR4^YFP- or TLR3^YFP-expressing HELA cells were transiently transfected with 4 μg of plasmid encoding Flag-Mal, Flag-TRAM or Flag TRAM-C117H. Forty-eight hours after transfection, whole cell lysates were immunoprecipitated with anti-GFP antibody and immunoprecipitated complexes immunoblotted for Flag-tagged adapters and co-immunoprecipitation experiments performed.

B1: Flag-tagged Mal (MyD88 adaptor-like; TIRAP) (other, UniProt P58753-2 1-235, looked up)
chain: MASSTSLPAPGSRPKKPLGKMADWFRQTLLKKPKKRPNSPESTSSDASQPTSQDSPLPPSLSSVTSPSLPPTHASDSGSSRWSKDYDVCVCHSEEDLVAAQDLVSYLEGSTASLRCFLQLRDATPGGAIVSELCQALSSSHCRVLLITPGFLQDPWCKYQMLQALTEAPGAEGCTIPLLSGLSRAAYPPELRFMYYVDGRGPDGGFRQVKEAVMRCKLLQEGEGERDSATVSDLL
notes: pEF-Bos-Flag Mal as described in Fitzgerald et al; also called Flag-Mal; pEF-Bos-Flag Mal; not shown: Flag tag
  binding result: no binding
